Kd data for 1 substance are collected here from article doi:10.1101/2021.03.17.435802.

One test deals with ACE2(HH:NN)-Fc (human) (UniProt Q9BYF1). Put plainly: SPR.
The target of test [1] is catalytically active ACE2-Fc (human) (UniProt Q9BYF1). Put plainly: SPR. On the technique in general: In SPR one partner is held on a chip, and binding of the other changes the refractive index at the surface.

In general, Kd refers to the free concentration of one partner at which half of the binding sites on the other are occupied at equilibrium, for simple one-to-one binding. A higher Kd goes with lower affinity. As for Angiotensin II (peptide), the Kd stood at 1300 nM with ACE2(HH:NN)-Fc (human) and 117 nM in test [1].
